Patent US20070003923A1 (Scripps Research, published 2007)

T1: Ad5Δs truncated Ad5 fiber (deletion of the 14 central shaft repeats), on pseudotyped Ad5 particles (adenovirus serotype 5 (Ad5), UniProt P11818 1-581)
T1 construct: also called Ad5As; pLP32
T1 sequence: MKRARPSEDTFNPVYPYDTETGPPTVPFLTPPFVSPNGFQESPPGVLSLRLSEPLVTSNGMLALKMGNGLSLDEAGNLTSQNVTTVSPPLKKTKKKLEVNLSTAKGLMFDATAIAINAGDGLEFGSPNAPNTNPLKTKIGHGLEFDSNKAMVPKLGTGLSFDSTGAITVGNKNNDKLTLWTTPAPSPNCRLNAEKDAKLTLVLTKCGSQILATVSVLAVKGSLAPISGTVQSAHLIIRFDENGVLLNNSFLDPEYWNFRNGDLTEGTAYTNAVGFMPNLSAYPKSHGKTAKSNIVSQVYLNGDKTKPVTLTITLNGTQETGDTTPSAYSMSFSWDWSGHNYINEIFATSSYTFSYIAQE

B1: Ad5s/Ad37s chimeric fiber (Ad5 fiber with the 3rd and 21st repeats replaced with the corresponding repeats of Ad37), on pseudotyped Ad5 particles (other)
chain: MKRARPSEDTFNPVYPYDTETGPPTVPFLTPPFVSPNGFQESPPGVLSLRLSEPLVTSNGMLALKMGNGLSLDEAGSLTVNPKAPLQVNTDSNINLEISAPLTVTSEALTVAAAAPLMVAGNTLTMQSQAPLTVHDSKLSIATQGPLTVSEGKLALQTSGPLTTTDSSTLTITASPPLTTATGSLGIDLKEPIYTQNGKLGLKYGAPLHVTDDLNTLTVATGPGVTINNTSLQTKVTGALGFDSQGNMQLNVAGGLRIDSQNRRLILDVSYPFDAQNQLNLRLGQGPLFINSAHNLDINYNKGLYLFTASNNSKKLEVNLSTAKGLMFDATAIAINAGDGLEFGSPNAPNTNPLKTKIGHGLEFDSNIGINVRAREGLTFDNDGAITVGNKNNDKLTLWTTPAPSPNCRLNAEKDAKLTLVLTKCGSQILATVSVLAVKGSLAPISGTVQSAHLIIRFDENGVLLNNSFLDPEYWNFRNGDLTEGTAYTNAVGFMPNLSAYPKSHGKTAKSNIVSQVYLNGDKTKPVTLTITLNGTQETGDTTPSAYSMSFSWDWSGHNYINEIFATSSYTFSYIAQE
notes: also called 'straightened' Ad5 fiber shaft; pLP43
B2: Ad37s/Ad5k chimeric fiber (Ad37 shaft fused to the Ad5 knob), on pseudotyped Ad5 particles (other)
chain: MKRARPSEDDFNPVYPYGYARNQNIPFLTPPFVSSDGFKNFPPGVLSLKLADPITITNGDVSLKVGGGLTLQDGSLTVNPKAPLQVNTDKKLELAYDNPFESSANKLSLKVGHGLKVLDEKSAAGLKDLIGKLVVLTGKGIGTENLENTDGSSRGIGINVRAREGLTFDNDGYLVAWNPKYDTRTLWTTPAPSPNCRLNAEKDAKLTLVLTKCGSQILATVSVLAVKGSLAPISGTVQSAHLIIRFDENGVLLNNSFLDPEYWNFRNGDLTEGTAYTNAVGFMPNLSAYPKSHGKTAKSNIVSQVYLNGDKTKPVTLTITLNGTQETGDTTPSAYSMSFSWDWSGHNYINEIFATSSYTFSYIAQE
notes: Built from Ad37 1-184, with the first seven residues changed to those of Ad5, and Ad5 400-581; also called pLP13
B3: wild type Ad5 fiber protein, on Ad5-pseudotyped particles (Ad5.GFP.ΔF/5F) (other)
chain: MKRARPSEDTFNPVYPYDTETGPPTVPFLTPPFVSPNGFQESPPGVLSLRLSEPLVTSNGMLALKMGNGLSLDEAGNLTSQNVTTVSPPLKKTKSNINLEISAPLTVTSEALTVAAAAPLMVAGNTLTMQSQAPLTVHDSKLSIATQGPLTVSEGKLALQTSGPLTTTDSSTLTITASPPLTTATGSLGIDLKEPIYTQNGKLGLKYGAPLHVTDDLNTLTVATGPGVTINNTSLQTKVTGALGFDSQGNMQLNVAGGLRIDSQNRRLILDVSYPFDAQNQLNLRLGQGPLFINSAHNLDINYNKGLYLFTASNNSKKLEVNLSTAKGLMFDATAIAINAGDGLEFGSPNAPNTNPLKTKIGHGLEFDSNKAMVPKLGTGLSFDSTGAITVGNKNNDKLTLWTTPAPSPNCRLNAEKDAKLTLVLTKCGSQILATVSVLAVKGSLAPISGTVQSAHLIIRFDENGVLLNNSFLDPEYWNFRNGDLTEGTAYTNAVGFMPNLSAYPKSHGKTAKSNIVSQVYLNGDKTKPVTLTITLNGTQETGDTTPSAYSMSFSWDWSGHNYINEIFATSSYTFSYIAQE
B4: Coxsackie-Adenovirus Receptor (CAR) on A549 lung carcinoma cells (receptor)
chain: LSITTPEEMIEKAKGETAYLPCKFTLSPEDQGPLDIEWLISPADNQKVDQVIILYSGDKIYDDYYPDLKGRVHFTSNDLKSGDASINVTNLQLSDIGTYQCKVKKAPGVANKKIHLVVLVKPSGARCYVDGSEEIGSDFKIKCEPKEGSLPLQYEWQKLSDSQKMPTSWLAEMTSSVISVKNASSEYSGTYSCTVRNRVGSDQCLLRLNVVPPSNKAGLIAGAIIGTLLALALIGLIIFCCRKKRREEKYEKEVHHDIREDVPPPKSRTSTARSYIGSNHSSLGSMSPSNMEGYSKTQYNQVPSEDFERTPQSPTLPPAKVAAPNLSRMGAIPVMIPAQSKDGSIV
notes: whole, on cells; The assays were run on A549 cells, which were not transfected with CAR

Legend:
[1] = molecular target: B4; experiment: virus attachment to A549 cells at 4 C, bound genomes by TaqMan PCR; non-specific binding set by excess Ad5 knob
[2] = molecular target: B4; experiment: cell-based or functional assay
[3] = molecular target: T1, Ad5Δs truncated Ad5 fiber (deletion of …); experiment: virus attachment to A549 cells at 4 C, bound genomes by TaqMan PCR; non-specific binding set by excess Ad5 knob
[4] = molecular target: B3; experiment: as above

B1: binds [1].

B2: binds [1].

With B3 the “infection of A549 cells by GFP vector particles (FACS)” value [2] was ~8 fold.

B4: binds [3]; binds [4].
